Source: publication PMC6377654, “Screening and identification of a non-peptide antagonist for the peptide hormone receptor in Arabidopsis” (Communications Biology, 2019)
Each block holds one molecule with its values, some of them ahead of it.

What was measured:
BAM1 = biological target: T1, BAM1 (Arabidopsis thaliana, UniProt O49545); test: competition binding of fluorescent Alexa488-CLE9 on bead-immobilized BAM1 (confocal imaging); confirmed by competitive photoaffinity labeling with […]ASA-CLE9 and […]ASA-[Ara3]CLV3
T1 construct: BAM1-HT: Met1 to Ile700 region (signal peptide, 22 LRRs, transmembrane domain), cytoplasmic kinase domain replaced with HaloTag; expressed in tobacco BY-2 cells, immobilized on HaloLink Sepharose beads
T1 sequence (O49545 1-700): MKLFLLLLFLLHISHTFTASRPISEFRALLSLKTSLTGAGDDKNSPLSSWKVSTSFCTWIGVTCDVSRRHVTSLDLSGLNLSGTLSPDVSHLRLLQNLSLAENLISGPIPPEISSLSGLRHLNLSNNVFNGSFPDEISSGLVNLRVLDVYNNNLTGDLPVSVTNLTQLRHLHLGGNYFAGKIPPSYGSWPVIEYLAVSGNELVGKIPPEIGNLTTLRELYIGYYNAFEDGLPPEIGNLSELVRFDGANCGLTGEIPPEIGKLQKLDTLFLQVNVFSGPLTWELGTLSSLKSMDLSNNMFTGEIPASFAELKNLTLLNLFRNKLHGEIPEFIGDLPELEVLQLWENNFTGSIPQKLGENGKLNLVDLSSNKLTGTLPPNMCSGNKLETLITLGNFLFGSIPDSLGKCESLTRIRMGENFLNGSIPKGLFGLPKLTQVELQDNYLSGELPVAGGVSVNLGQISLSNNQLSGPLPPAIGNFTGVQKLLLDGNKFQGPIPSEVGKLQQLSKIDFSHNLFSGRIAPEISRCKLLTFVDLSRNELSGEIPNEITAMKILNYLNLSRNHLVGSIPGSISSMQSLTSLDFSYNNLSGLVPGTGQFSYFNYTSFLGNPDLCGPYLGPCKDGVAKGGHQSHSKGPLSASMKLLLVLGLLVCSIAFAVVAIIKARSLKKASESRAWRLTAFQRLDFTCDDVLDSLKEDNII

[1] = biological target: BAM2 (Arabidopsis thaliana) (UniProt Q9M2Z1); conditions: cited from earlier work
[2] = biological target: BAM1 (Arabidopsis thaliana) (UniProt O49545); conditions: cited from earlier work
[3] = biological target: CLV1 (Arabidopsis thaliana) (UniProt Q9SYQ8); conditions: cited from earlier work
[4] = biological target: BAM1-HaloTag (recombinant BAM1 in which the cytoplasmic kinase domain was replaced with HaloTag) (Arabidopsis) (UniProt O49545); test: cross-linking; photoaffinity labeling as a3, in the presence of 10 μM NPD12704
[5] = biological target: BAM1-HaloTag (recombinant BAM1 in which the cytoplasmic kinase domain was replaced with HaloTag) (Arabidopsis) (UniProt O49545); test: cross-linking; photoaffinity labeling as a3, in the presence of 100 μM NPD12704

BAM2 (Arabidopsis thaliana), sequence (Q9M2Z1 23-636): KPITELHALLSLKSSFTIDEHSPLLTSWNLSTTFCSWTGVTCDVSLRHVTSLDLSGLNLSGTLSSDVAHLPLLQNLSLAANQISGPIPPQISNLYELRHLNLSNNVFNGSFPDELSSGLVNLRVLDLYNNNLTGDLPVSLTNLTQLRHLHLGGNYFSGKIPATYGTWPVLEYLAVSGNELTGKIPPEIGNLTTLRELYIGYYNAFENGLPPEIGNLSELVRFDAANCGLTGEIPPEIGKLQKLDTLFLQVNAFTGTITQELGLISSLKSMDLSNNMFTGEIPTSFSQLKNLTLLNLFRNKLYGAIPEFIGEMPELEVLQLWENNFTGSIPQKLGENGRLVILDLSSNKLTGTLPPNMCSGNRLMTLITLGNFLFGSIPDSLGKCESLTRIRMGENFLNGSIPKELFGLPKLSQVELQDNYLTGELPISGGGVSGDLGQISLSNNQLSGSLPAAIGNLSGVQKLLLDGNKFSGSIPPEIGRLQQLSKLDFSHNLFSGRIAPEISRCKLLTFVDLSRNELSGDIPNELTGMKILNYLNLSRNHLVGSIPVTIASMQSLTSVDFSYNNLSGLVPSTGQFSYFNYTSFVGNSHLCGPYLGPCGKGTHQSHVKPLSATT
CLV1 (Arabidopsis thaliana), sequence (Q9SYQ8 25-638): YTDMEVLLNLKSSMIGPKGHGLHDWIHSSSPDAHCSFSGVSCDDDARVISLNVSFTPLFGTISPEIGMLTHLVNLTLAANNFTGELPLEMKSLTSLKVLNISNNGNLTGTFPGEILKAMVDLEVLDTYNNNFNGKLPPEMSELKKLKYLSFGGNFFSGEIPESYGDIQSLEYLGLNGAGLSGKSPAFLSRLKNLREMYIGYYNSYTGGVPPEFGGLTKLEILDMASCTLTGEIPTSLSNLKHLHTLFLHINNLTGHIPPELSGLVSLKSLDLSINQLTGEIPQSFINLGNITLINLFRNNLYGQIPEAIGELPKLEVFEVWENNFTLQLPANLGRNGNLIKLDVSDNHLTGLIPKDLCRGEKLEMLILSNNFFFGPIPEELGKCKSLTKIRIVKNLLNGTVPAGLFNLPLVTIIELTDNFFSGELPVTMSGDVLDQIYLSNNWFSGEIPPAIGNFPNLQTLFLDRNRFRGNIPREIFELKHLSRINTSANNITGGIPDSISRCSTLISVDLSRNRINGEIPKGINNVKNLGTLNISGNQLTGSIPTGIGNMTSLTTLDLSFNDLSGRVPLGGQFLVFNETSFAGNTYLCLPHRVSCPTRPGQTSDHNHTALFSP

Molecule: CLE9 (from UniProt Q9FZE4)
Kd [1]: 11.9 nM | Kd [2]: 1.8 nM

Molecule: [Ara3]CLV3 (from UniProt Q9XF04)
Kd [3]: 1 nM

Next, values leading:

IC50 (BAM1): 26000 nM
Molecule: CNC(=S)Nc1cc(OC)c(OC)cc1Cc1nccc2cc(OC)c(OC)cc12 [NPD12704]

cross-linked band, percent of the control, with 10 μM NPD12704 (% of the control) [4]: 62 | cross-linked band, percent of the control, with 100 μM NPD12704 (% of the control) [5]: 33
Molecule: [^125I]ASA-CLE9 (peptide)

cross-linked band, percent of the control, with 10 μM NPD12704 (% of the control) [4]: 46
Molecule: [^125I]ASA-[Ara3]CLV3 glycopeptide
